Test results: patent US20080051336A1 (Janssen / Centocor, published 2008)
Read-outs that look alike come from different tables or passages of the source. Each block holds one binder with its values, some of them ahead of it. Ends that are not written are not given here.

Key:
human LGR7 [1] = target: T1, human LGR7 (human, UniProt Q9HBX9 1-757); assay: cell-based or functional assay
T1 sequence (looked up): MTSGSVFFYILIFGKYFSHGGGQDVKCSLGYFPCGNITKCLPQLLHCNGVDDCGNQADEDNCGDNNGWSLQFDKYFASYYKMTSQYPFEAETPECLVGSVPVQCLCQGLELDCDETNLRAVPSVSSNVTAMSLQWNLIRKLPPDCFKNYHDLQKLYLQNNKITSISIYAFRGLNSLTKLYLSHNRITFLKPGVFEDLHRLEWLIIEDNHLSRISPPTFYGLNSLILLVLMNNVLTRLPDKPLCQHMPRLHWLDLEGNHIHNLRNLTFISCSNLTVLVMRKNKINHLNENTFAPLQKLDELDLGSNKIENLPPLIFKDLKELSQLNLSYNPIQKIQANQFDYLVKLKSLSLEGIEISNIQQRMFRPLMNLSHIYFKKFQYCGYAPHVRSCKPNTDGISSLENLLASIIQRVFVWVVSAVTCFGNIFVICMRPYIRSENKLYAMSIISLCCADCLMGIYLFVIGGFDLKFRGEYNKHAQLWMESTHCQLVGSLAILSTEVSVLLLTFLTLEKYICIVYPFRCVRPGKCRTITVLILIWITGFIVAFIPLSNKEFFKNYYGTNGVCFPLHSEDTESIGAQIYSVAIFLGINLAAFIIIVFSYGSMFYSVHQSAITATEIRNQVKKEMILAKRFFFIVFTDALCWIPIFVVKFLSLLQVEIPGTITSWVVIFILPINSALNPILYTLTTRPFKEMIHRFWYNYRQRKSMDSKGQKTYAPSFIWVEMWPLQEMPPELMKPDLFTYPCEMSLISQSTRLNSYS

rat GPCR135 [2] = target: T2, rat GPCR135 (rat, UniProt Q8BGE9 1-472 (mouse entry)); assay: inhibition of [125I]R3/I5 binding sites, quantitative receptor autoradiography, rat superior colliculus
T2 construct: Also tested as the native receptor in rat brain sections; also called rat GPCR135 receptors
T2 chain: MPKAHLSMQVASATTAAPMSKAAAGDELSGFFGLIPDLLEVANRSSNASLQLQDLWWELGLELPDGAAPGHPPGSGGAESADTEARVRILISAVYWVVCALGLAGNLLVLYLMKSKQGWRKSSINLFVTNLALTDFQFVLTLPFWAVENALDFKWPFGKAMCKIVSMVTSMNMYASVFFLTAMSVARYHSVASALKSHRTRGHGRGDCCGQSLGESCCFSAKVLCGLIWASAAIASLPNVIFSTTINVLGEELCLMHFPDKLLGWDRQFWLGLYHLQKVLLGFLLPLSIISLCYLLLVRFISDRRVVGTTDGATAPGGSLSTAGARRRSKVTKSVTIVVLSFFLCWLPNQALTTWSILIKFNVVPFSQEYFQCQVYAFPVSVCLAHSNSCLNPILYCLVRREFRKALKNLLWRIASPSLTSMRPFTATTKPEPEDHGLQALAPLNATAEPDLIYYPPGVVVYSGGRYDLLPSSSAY
Experimental: (§1) Sections were thawed and dried under a cold air stream and then pre-incubated for 15 min. at room temperature in incubation buffer (20 mM HEPES, pH 7.4, 120 mM NaCl₂, 0.22 mM KH₂PO₄, 1.3 mM CaCl₂, 0.8 mM MgSO₄) by immersing sections in a 400 ml jar. […] After incubation, the excess radioligand was washed off by immersing the slides in the jar containing incubation buffer at 4° C. (3 times 10 min.) followed by a quick immersion in water. […] The imaging plates were scanned using the Fuji Bio-Imaging Analyzer System (BAS-5000, Fuji Medical System, CT) and visualized using ImageGauge V3.12 software (Fuji Medical System, CT).

rat GPCR135 [3] = target: T2, rat GPCR135; assay: inhibition of [125I]R3/I5 binding sites, quantitative receptor autoradiography, rat cortex
Experimental: as §1

rat GPCR135 [4] = target: T2, rat GPCR135; assay: inhibition of [125I]R3/I5 binding sites, quantitative receptor autoradiography, rat olfactory bulb
Experimental: as §1

human GPCR135 [5] = target: T3, human GPCR135 (human, UniProt Q9NSD7 1-469); assay: competition with [125I]-relaxin-3 (100 pM), COS-7 membranes with human GPCR135
T3 construct: Recombinant; also called SALPR
T3 sequence: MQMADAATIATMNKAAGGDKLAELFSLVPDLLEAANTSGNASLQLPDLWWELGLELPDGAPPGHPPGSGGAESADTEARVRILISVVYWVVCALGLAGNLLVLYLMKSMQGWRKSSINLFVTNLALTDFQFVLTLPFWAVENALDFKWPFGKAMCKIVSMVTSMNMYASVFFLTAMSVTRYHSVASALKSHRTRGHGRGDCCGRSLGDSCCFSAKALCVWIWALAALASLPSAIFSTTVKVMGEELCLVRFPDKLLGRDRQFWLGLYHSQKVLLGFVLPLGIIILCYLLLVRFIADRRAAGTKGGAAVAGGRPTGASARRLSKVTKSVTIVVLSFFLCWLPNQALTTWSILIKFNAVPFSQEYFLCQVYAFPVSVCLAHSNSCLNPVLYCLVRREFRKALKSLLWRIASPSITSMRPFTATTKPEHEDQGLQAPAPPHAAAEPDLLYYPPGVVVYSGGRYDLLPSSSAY
Experimental: (§2) Different unlabeled peptides were used in the binding assay as the competitors. […] Data represent mean±SEM (n=3).
(§3) Peptides for competition binding studies were added to the binding mix (final volume: 200 μl) in binding buffer [50 mM Tris-HCl, pH 7.5, 5 mM EDTA, 1% bovine serum albumin, 0.1% protease inhibitor cocktails (Sigma)]. The binding mixtures were incubated at room temperature for 1 hour, filtered through GFC plates (Packard) pre-saturated with 0.3% Polyethylenimine (Sigma), and washed with cold washing buffer (50 mM Tris-HCl, pH 7.5, 5 mM EDTA).

human GPCR142 [6] = target: T4, human GPCR142 (human, UniProt Q8TDU9 1-374); assay: cell-based or functional assay
human GPCR135 [7] = target: T3, human GPCR135; assay: cell-based or functional assay
human LGR7 [8] = target: T1, human LGR7; assay: competition with [125I]-relaxin-3 (100 pM) on live COS-7 cells expressing human LGR7; ND denotes no activity was detected
Experimental: as §2
(§4) Radioligand binding assays for LGR7 and LGR8 were performed using live COS-7 cells transiently transfected with LGR7 or LGR8 expression plasmids in 15-cm culture dishes using LipofectAmine (Invitrogen). Two days after transfection, the transfected cells were detached from the 15-cm culture dished using phosphate buffered saline (PBS) plus 10 mM EDTA, seeded into 96-well opaque poly-D-lysine coated culture plates and used for radioligand binding assays. […] [¹²⁵I]-labeled tracer was added in binding reactions at a final concentration of 100 pM in binding buffer containing DMEM plus 50 mM HEPES and 1% bovine serum albumin. […] The binding mixtures were incubated at room temperature for 1 hour. The unbound radioligand was removed by aspiration of the binding buffer. The cells were washed with PBS. The bound radioligand was counted in a scintillation counter (TopCount/NTX). The results were analyzed using Prism 3.0 program (Graphpad, San Diego, Calif.).

human LGR8 = target: T5, human LGR8 (human, UniProt Q8WXD0 1-754); assay: competition with [125I]-INSL3 (100 pM) on live COS-7 cells expressing human LGR8; ND denotes no activity was detected
T5 construct: whole, on cells
Experimental: as §2, §4

human GPCR142 [9] = target: T4, human GPCR142; assay: competition with [125I]-relaxin-3 (100 pM), COS-7 membranes with human GPCR142
Experimental: as §2, §3

human LGR7 [10] = target: T1, human LGR7; assay: discussion of the radioligand binding results
human GPCR135 [11] = target: T3, human GPCR135; assay: discussion of the radioligand binding results
rat GPCR135 [12] = target: T2, rat GPCR135; assay: radioligand competition, COS-7 membranes; reference rat LGR7
Experimental: (§5) The reaction was incubated at room temperature for 1 hour and the membranes were filtered through the 96-well GFC plates (Packard Instrument Co., Meriden, Conn.) using a cell harvester (Packard Instrument Co). The filter was washed with the ice cold washing buffer (50 mM Tris-HCl, pH 7.5). Fifty μl of Microscint 40 (Packard Instrument Co) was added to each well and the plates were counted on a Topcount NTX (Packard Instrument Co). […] The results were analyzed using the PRISM software (GraphPad, San Diego, Calif.).

human LGR7 [13] = target: T1, human LGR7; assay: competition with [125I]-relaxin-3 (100 pM), live COS-7 cells with human LGR7
Experimental: as §2, §4

human LGR7 [14] = target: T1, human LGR7; assay: cell-based or functional assay; remark: listed apart in the source
rat GPCR135 [15] = target: T2, rat GPCR135; assay: competition with [125I]-R3 (100 pM), COS-7 membranes with rat GPCR135
Experimental: as §5

rat LGR7 = target: T6, rat LGR7 (rat, UniProt Q6R6I6 1-758); assay: competition with [125I]R2 (100 pM), COS-7 membranes with rat LGR7
T6 construct: whole, on cells; Tested as membranes of transfected COS-7 cells; also called rat LGR7 receptors
T6 sequence (looked up): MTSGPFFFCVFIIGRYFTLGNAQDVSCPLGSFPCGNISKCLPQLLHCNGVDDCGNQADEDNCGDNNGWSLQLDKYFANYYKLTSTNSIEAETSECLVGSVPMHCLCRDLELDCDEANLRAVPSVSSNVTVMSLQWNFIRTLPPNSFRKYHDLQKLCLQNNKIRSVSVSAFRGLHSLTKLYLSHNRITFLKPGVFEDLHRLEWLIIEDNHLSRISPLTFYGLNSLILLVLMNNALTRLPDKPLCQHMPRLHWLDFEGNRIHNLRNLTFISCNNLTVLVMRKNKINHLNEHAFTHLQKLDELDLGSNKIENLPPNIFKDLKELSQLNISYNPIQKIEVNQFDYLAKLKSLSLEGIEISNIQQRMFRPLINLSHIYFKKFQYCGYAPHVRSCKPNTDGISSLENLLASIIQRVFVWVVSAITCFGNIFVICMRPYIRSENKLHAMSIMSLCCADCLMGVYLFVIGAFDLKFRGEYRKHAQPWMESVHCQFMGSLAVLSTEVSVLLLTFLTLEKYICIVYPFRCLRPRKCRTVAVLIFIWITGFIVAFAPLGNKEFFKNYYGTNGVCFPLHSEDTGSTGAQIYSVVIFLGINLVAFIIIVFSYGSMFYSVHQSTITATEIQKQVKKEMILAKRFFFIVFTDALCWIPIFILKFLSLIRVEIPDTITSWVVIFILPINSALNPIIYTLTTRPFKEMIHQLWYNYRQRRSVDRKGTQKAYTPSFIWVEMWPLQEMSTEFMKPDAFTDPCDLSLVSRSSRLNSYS
Experimental: as §5

human LGR7 [16] = target: T1, human LGR7; assay: radioligand competition, live COS-7 cells with human LGR7
Experimental: as §2, §4

rat GPCR135 [17] = target: T2, rat GPCR135; assay: competition with [125I]R3 (100 pM), COS-7 membranes with rat GPCR135
Experimental: as §5

T4 sequence (Q8TDU9 whole entry L329S): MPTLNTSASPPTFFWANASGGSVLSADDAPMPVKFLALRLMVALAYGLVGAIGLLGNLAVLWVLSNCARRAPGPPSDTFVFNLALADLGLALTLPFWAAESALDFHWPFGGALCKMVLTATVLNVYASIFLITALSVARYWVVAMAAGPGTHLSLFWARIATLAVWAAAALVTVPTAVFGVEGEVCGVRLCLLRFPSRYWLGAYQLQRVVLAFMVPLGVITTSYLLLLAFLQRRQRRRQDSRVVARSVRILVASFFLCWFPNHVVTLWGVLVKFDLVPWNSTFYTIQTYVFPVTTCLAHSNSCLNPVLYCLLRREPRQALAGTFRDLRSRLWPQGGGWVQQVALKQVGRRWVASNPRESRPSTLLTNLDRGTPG
T5 sequence (Q8WXD0 whole entry): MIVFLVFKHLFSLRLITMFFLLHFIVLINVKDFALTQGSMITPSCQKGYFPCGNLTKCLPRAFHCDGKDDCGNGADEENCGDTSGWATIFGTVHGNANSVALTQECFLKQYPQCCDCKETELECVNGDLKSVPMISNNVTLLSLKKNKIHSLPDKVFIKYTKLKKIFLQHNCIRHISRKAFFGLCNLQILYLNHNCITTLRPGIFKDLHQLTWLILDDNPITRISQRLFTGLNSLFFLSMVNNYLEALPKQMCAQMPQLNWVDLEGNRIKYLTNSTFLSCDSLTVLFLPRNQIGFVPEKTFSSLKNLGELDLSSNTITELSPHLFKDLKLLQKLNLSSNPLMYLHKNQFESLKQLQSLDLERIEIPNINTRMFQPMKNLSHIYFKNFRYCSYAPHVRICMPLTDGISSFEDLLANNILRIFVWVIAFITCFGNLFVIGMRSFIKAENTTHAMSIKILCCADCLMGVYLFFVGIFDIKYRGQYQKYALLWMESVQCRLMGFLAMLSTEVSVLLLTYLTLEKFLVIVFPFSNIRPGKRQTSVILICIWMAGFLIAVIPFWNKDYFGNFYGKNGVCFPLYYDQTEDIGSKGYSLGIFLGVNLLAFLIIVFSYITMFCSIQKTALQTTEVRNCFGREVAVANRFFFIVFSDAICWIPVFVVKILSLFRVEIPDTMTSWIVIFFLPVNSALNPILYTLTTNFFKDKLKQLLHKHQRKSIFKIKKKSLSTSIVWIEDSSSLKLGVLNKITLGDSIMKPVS

IC50 (human GPCR135 [5]): > 1000 nM
EC50, inhibition of forskolin stimulated β-galactosidase expression (human GPCR142 [6]): > 1000 nM
EC50, inhibition of forskolin stimulated β-galactosidase expression (human GPCR135 [7]): > 1000 nM
binding result (human LGR7 [8]): no binding (tested: 1 µM)
binding result (human LGR8): no binding
IC50 (human GPCR142 [9]): > 1000 nM
B2: human relaxin-3/INSL4 chimeric polypeptide (R3/I4), mature (ligand)
chain: RAAPYGVRLCGREFIRAVIFTCGGSRWFDPFCCEVICDDGTSVKLC
modifications: disulfide (positions not given here); also: two chains (relaxin-3 B-chain, INSL4 A-chain), disulfide-linked, chain break not marked
notes: Mature two-chain peptide: human relaxin-3 B-chain disulfide-linked to human INSL4 A-chain; FLAG tag removed

IC50 (rat GPCR135 [17]): > 1000 nM
IC50 (rat LGR7): 0.2 nM
B4: human relaxin (R1) (ligand)
chain: KWKDDVIKLCGRELVRAQIAICGMSTWSRPYVALFEKCCLIGCTKRSLAKYC
notes: also called relaxin-1

Continued, binder first:

B1: human relaxin-3 (ligand)
chain: RAAPYGVRLCGREFIRAVIFTCGGSRWDVLAGLSSSCCKWGCSKSEISSLC
modifications: disulfide (positions not given here); also: two-chain peptide (A and B chains), disulfide-linked, places not given here
notes: Mature two-chain peptide (A-chain and B-chain, disulfide-linked); It is not clear whether that entry holds the B-chain alone or both chains; also called R3; INSL7
EC50, stimulation of β-galactosidase activity (human LGR7 [1]): 1.4 nM
IC50 (rat GPCR135 [2]): 0.3 nM
IC50 (rat GPCR135 [3]): 0.4 nM
IC50 (rat GPCR135 [4]): 0.3 nM

B3: human relaxin-3/INSL5 chimeric polypeptide (R3/I5), mature (ligand)
chain: RAAPYGVRLCGREFIRAVIFTCGGSRWQDLQTLCCTDGCSMTDLSALC
modifications: disulfide (positions not given here); also: two chains (relaxin-3 B-chain, INSL5 A-chain), disulfide-linked, chain break not marked
notes: Mature two-chain peptide: human relaxin-3 B-chain disulfide-linked to human INSL5 A-chain; FLAG tag removed; the tracer is kept under this same molecule; also called R3/5; I5/R3
Kd (human LGR7 [10]): ~500 nM
Kd (human GPCR135 [11]): ~0.5 nM
fold selectivity over rat LGR7 (rat GPCR135 [12]): 800 fold
IC50 (human LGR7 [13]): 724 nM
EC50, ligand stimulated β-galactosidase expression (human LGR7 [1]): ~400 nM
IC50 (human GPCR135 [5]): 0.68 nM
EC50, ligand stimulated β-galactosidase expression (human LGR7 [14]): 412 nM
EC50, inhibition of forskolin stimulated β-galactosidase expression (human GPCR142 [6]): 0.91 nM
EC50, inhibition of forskolin stimulated β-galactosidase expression (human GPCR135 [7]): 0.45 nM
IC50 (rat GPCR135 [15]): 0.5 nM
IC50 (rat LGR7): > 400 nM
binding result (human LGR8): no binding
IC50 (human LGR7 [16]): ~500 nM
IC50 (human GPCR142 [9]): 1.4 nM
